Source: patent US20030203451A1 (Genentech, published 2003)

Legend:
[1] = target: recombinant IL-17E (baculovirus, Examples 33/34) (human) (UniProt Q9H293); assay: SPR (BIAcore 1000), IL-17E immobilized on CM5 chip, IL-17RH1 ECD in solution, 1:1 model
[2] = target: T1, IL-17R extracellular domain (residues 1-288), baculovirus, Examples 33/34 (human, UniProt Q96F46 33-320); assay: SPR (BIAcore)
T1 construct: range 1-288; also called IL-17R ECD

[3] = target: T2, IL-17RH1 (PRO5801) extracellular domain (residues 1-275), baculovirus, Examples 33/34 (human) (UniProt Q9NRM6); assay: SPR (BIAcore 1000), IL-17RH1 ECD immobilized on CM5 chip, IL-17E in solution, 1:1 model
T2 sequence: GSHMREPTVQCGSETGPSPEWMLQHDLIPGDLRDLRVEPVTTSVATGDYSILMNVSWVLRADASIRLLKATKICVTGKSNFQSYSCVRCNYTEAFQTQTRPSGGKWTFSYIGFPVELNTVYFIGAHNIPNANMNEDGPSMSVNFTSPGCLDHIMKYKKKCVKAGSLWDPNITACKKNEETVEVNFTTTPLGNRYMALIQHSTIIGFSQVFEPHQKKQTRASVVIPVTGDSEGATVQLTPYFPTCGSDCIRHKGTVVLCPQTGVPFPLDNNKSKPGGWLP

[4] = target: T3, IL-17RH1 (PRO5801) expressed on transfected 293 cells (human, UniProt Q9NRM6 18-502); assay: FACS on 293 cells co-transfected with GFP and IL-17RH1, ligand-Fc detected with PE anti-human Fc antibody, GFP-positive cells
T3 construct: also called IL-17RH1 expressing cells
T3 sequence: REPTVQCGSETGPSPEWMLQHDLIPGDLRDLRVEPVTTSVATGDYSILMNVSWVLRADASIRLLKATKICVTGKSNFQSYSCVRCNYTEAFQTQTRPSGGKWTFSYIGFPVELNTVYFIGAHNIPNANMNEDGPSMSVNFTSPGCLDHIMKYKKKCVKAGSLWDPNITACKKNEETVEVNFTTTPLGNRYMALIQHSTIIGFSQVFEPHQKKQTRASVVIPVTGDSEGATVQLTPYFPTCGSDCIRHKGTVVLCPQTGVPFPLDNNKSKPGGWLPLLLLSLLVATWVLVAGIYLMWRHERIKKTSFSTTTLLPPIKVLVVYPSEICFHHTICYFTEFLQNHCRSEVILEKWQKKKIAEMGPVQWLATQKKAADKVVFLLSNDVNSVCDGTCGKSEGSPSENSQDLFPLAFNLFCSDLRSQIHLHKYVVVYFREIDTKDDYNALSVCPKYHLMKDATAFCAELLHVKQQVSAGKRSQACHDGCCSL

[5] = target: T3, IL-17RH1 (PRO5801) expressed on …; assay: flow cytometry competition against IL-17E immunoadhesin on IL-17RH1-transfected 293 cells
[6] = target: T1, IL-17R extracellular domain (residues …); assay: SPR (BIAcore), IL-17F immobilized, receptor ECD in solution

Molecule: IL-17RH1 (PRO5801) extracellular domain (residues 1-275), baculovirus, Examples 33/34 (from UniProt Q9NRM6 18-292) (receptor)
- Kd [1]: 1.1 nM
- koff [1]: 0.0007 s⁻¹
- kon [1]: 670000 M⁻¹ s⁻¹

B1: recombinant IL-17E (baculovirus, Examples 33/34) (ligand)
chain: GSHMYSHWPSCCPSKGQDTSEELLRWSTVPVPPLEPARPNRHPESCRASEDGPLNSRAISPWRYELDRDLNRLPQDLYHARCLCPHCVSLQTGSHMDPRGNSELLYHNQTVFYRRPCHGEKGTHKGYCLERRLYRVSLACVCVRPRVMG
notes: also called IL-17E (PRO10272); soluble IL-17E
- binding result [2]: no binding
- Kd [3]: 1.4 nM
- koff [3]: 0.00062 s⁻¹
- kon [3]: 430000 M⁻¹ s⁻¹

B2: IL-17E-Fc fusion protein (IL-17E immunoadhesin) (Fc fusion)
chain: YSHWPSCCPSKGQDTSEELLRWSTVPVPPLEPARPNRHPESCRASEDGPLNSRAISPWRYELDRDLNRLPQDLYHARCLCPHCVSLQTGSHMDPRGNSELLYHNQTVFYRRPCHGEKGTHKGYCLERRLYRVSLACVCVRPRVMG
notes: not shown: Fc region of human IgG1, fused in frame at the C-terminus
- binding result [4]: binds

B3: His epitope tagged IL-17E (E. coli, refolded) (ligand)
chain: YSHWPSCCPSKGQDTSEELLRWSTVPVPPLEPARPNRHPESCRASEDGPLNSRAISPWRYELDRDLNRLPQDLYHARCLCPHCVSLQTGSHMDPRGNSELLYHNQTVFYRRPCHGEKGTHKGYCLERRLYRVSLACVCVRPRVMG
notes: also called IL-17E 8xHis-tag fusion; not shown: 8xHis-tag fusion
- binding result [5]: binds

B4: recombinant IL-17F (baculovirus, Examples 33/34) (ligand)
chain: GSHMRKIPKVGHTFFQKPESCPPVPGGSMKLDIGIINENQRVSMSRNIESRSTSPWNYTVTWDPNRYPSEVVQAQCRNLGCINAQGKEDISMNSVPIQQETLVVRRKHQGCSVSFQLEKVLVTVGCTCVTPVIHHVQ
modifications: N-glycosylation at Asn 53 (mature numbering); about 3 kDa carbohydrate per dimer
notes: The same protein was crystallized; also called IL-17F (PRO20110); immobilized IL-17F
- binding result [6]: no binding (tested: up to 1 µM)
